The values below come from patent US20070274915.

In series [1] the target is T1, bacterially-expressed HHR23A substrate, P54725.
T1 chain: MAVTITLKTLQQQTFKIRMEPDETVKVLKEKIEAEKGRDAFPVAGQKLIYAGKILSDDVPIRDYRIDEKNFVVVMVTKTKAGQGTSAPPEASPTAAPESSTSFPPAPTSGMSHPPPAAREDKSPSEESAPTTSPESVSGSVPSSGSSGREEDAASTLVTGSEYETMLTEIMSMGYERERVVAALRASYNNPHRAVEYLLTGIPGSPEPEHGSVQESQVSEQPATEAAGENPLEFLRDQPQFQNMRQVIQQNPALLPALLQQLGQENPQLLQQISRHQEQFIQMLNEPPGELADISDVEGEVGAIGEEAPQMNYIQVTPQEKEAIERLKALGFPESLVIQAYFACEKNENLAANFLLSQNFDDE

Series [2] concerns the target AU-tagged PLC-γ1.

AU-tagged PLC-γ1, sequence (P19174 2-1290): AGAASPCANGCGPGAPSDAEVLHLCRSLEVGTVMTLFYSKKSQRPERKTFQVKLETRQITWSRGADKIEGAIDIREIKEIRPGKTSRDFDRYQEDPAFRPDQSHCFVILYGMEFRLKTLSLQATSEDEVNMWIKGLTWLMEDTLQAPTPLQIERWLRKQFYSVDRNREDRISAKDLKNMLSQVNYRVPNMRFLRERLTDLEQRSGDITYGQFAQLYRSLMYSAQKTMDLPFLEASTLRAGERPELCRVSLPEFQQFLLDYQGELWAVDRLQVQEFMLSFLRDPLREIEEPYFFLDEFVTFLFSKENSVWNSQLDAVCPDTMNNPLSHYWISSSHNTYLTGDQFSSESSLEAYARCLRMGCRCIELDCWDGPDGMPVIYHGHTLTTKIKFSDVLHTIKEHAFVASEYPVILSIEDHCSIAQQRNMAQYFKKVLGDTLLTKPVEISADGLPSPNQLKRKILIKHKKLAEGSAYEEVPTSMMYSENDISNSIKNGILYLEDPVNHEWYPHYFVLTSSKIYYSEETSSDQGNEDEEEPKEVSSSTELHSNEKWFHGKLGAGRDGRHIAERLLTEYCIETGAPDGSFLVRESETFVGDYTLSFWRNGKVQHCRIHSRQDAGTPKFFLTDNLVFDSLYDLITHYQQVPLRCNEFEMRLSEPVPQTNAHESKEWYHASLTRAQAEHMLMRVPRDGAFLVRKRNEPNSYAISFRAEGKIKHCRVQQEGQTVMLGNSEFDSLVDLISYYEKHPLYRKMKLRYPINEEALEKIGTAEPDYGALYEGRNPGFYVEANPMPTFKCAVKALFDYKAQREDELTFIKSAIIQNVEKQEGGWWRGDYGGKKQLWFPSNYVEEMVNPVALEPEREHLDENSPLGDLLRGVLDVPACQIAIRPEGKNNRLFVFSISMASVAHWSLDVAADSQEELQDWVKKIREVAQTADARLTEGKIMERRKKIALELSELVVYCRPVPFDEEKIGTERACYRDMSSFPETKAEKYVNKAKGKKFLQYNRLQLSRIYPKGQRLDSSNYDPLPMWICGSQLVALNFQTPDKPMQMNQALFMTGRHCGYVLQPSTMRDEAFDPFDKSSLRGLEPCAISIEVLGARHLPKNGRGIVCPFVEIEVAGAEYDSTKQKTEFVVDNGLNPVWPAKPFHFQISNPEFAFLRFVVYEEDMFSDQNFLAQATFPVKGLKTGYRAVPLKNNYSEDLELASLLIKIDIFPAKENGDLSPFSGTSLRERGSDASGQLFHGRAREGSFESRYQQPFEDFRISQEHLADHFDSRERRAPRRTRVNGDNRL

B1: E6AP (purified, full-length) (protein)
chain: MKRAAAKHLIERYYHQLTEGCGNEACTNEFCASCPTFLRMDNNAAAIKALELYKINAKLCDPHPSKKGASSAYLENSKGAPNNSCSEIKMNKKGARIDFKDVTYLTEEKVYEILELCREREDYSPLIRVIGRVFSSAEALVQSFRKVKQHTKEELKSLQAKDEDKDEDEKEKAACSAAAMEEDSEASSSRIGDSSQGDNNLQKLGPDDVSVDIDAIRRVYTRLLSNEKIETAFLNALVYLSPNVECDLTYHNVYSRDPNYLNLFIIVMENRNLHSPEYLEMALPLFCKAMSKLPLAAQGKLIRLWSKYNADQIRRMMETFQQLITYKVISNEFNSRNLVNDDDAIVAASKCLKMVYYANVVGGEVDTNHNEEDDEEPIPESSELTLQELLGEERRNKKGPRVDPLETELGVKTLDCRKPLIPFEEFINEPLNEVLEMDKDYTFFKVETENKFSFMTCPFILNAVTKNLGLYYDNRIRMYSERRITVLYSLVQGQQLNPYLRLKVRRDHIIDDALVRLEMIAMENPADLKKQLYVEFEGEQGVDEGGVSKEFFQLVVEEIFNPDIGMFTYDESTKLFWFNPSSFETEGQFTLIGIVLGLAIYNNCILDVHFPMVVYRKLMGKKGTFRDLGDSHPVLYQSLKDLLEYEGNVEDDMMITFQISQTDLFGNPMMYDLKENGDKIPITNENRKEFVNLYSDYILNKSVEKQFKAFRRGFHMVTNESPLKYLFRPEEIELLICGSRNLDFQALEETTEYDGGYTRDSVLIREFWEIVHSFTDEQKRLFLQFTTGTDRAPVGGLGKLKMIIAKNGPDTERLPTSHTCFNVLLLPEYSSKEKLKERLLKAITYAKGFGML
Take B1: the “trans-ubiquitination of HHR23A (in vitro reaction with E1, E2 UbcH7, ubiquitin and ATP; SDS-PAGE, anti-HHR23A immunoblot)” value in series [1] is reported as “time-dependent increase in the amount of ubiquitin-conjugated HHR23A substrate”.

B2: myc-tagged Nedd4 isoform (accession number KIAA0093) (protein)
chain: MATCAVEVFGLLEDEENSRIVRVRVIAGIGLAKKDILGASDPYVRVTLYDPMNGVLTSVQTKTIKKSLNPKWNEEILFRVHPQQHRLLFEVFDENRLTRDDFLGQVDVPLYPLPTENPRLERPYTFKDFVLHPRSHKSRVKGYLRLKMTYLPKTSGSEDDNAEQAEELEPGWVVLDQPDAACHLQQQQEPSPLPPGWEERQDILGRTYYVNHESRRTQWKRPTPQDNLTDAENGNIQLQAQRAFTTRRQISEETESVDNRESSENWEIIREDEATMYSNQAFPSPPPSSNLDVPTHLAEELNARLTIFGNSAVSQPASSSNHSSRRGSLQAYTFEEQPTLPVLLPTSSGLPPGWEEKQDERGRSYYVDHNSRTTTWTKPTVQATVETSQLTSSQSSAGPQSQASTSDSGQQVTQPSEIEQGFLPKGWEVRHAPNGRPFFIDHNTKTTTWEDPRLKIPAHLRGKTSLDTSNDLGPLPPGWEERTHTDGRIFYINHNIKRTQWEDPRLENVAITGPAVPYSRDYKRKYEFFRRKLKKQNDIPNKFEMKLRRATVLEDSYRRIMGVKRADFLKARLWIEFDGEKGLDYGGVAREWFFLISKEMFNPYYGLFEYSATDNYTLQINPNSGLCNEDHLSYFKFIGRVAGMAVYHGKLLDGFFIRPFYKMMLHKPITLHDMESVDSEYYNSLRWILENDPTELDLRFIIDEELFGQTHQHELKNGGSEIVVTNKNKKEYIYLVIQWRFVNRIQKQMAAFKEGFFELIPQDLIKIFDENELELLMCGLGDVDVNDWREHTKYKNGYSANHQVIQWFWKAVLMMDSEKRIRLLQFVTGTSRVPMNGFAELYGSNGPQSFTVEQWGTPEKLPRAHTCFNRLDLPPYESFEELWDKLQMAIENTQGFDGVD
In the case of B2, the “ionomycin-dependent degradation of PLC-γ1 (HEK 293 transfection, immunoblot)” value in series [2] was “Itch and Nedd4 both facilitated the ionomycin-dependent degradation of PLC-γ1”.

B3: catalytically inactive Nedd4 protein, bearing an alanine substitution at the active cysteine of the HECT domain (protein)
chain: B2 chain
As for B3, in series [2], the “ionomycin-dependent degradation of PLC-γ1 (HEK 293 transfection, immunoblot)” value is recorded as “did not promote this decrease (FIG. 17D; lanes 5, 6), but prevented the small but significant decrease in PLC-γ1 levels observed in ionomycin-treated cells”.
